According to the nanobody polyreactivity screen of Harvey et al. (2022):

Test: yeast display, Sf9 membrane polyspecificity reagent, FACS + sequencing; frameworks hold sequencing errors
Outline: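 Genes from sorted yeast were amplified by colony PCR, read by MiSeq 2 × 250 sequencing and filtered on CDR length. These cells carried a synthetic nanobody library in Saccharomyces cerevisiae BJ5465 and were sorted by FACS into low and high (top ~1%) gates on anti-HA and streptavidin fluorescence. Polyreactivity is labelled according to the gate of origin.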
In the case of “HVQLVESGGGLVQAGGSLRLSCAASGFTFARYAMGWYRQAPGKERDLVATITRSGDSTNYADSVKGRFTISRDNAKNTVYLQMNSLKPEDTAVYYCNRRYPIWYRTMNYWGQGTQVTVSS”, the “polyreactivity (PSR sort gate)” value is reported as “high polyreactivity”. With “QVQLVESGGGLVQAGGSLRLSCAASGRTFYRNPMGWYRQAPAKERELVAANSWSGGRTFYADSVKGRFTISRDNAKNTVYLHMNSMKPEDTAVYYCAKSYTTPGYYRYDYWGQGTQVTVSS” the “polyreactivity (PSR sort gate)” value was “high polyreactivity”. With “QVQLVESGGGLVQAGGSLRLSCAASGRIFAYYAMGWYRQPPGKERELVAAISRSGVSTYYADSVKGRFTISRDNAKNTVYLQMNSLKPEDTAVYYCAKTLSPEGVPYDYWGQGTQVTVSS” the “polyreactivity (PSR sort gate)” value was “low polyreactivity”. For “QVQLVESGGGLVQAGGSLRLSCAASGSIFAWYGMGWSRQAPGKERELVAAISTAGSTNYADSVKGRFTISRDNAKNTVYFQMNSLKPEDTAVYYCAKKSSWYYPERFDYWGQGTQVTVSS”, the “polyreactivity (PSR sort gate)” value was “low polyreactivity”. For “QVQLVESGGGLLQAGGSLRLSCAASGSTFNKYTMGWYIKAPGKERELVAAITSGDSTYYADSVKGRFTISRDNAKYTVYLQMNSLKTEDTAVYYCAKSLRAYRHVIYGKPFYSWGQGTQVTVSS”, the “polyreactivity (PSR sort gate)” value was “low polyreactivity”. With “QVQLVESGGGLVQAGGSLRLSCAASGRIFRRNTMGWSRQAPGKERELVAAITSSGGSTYADSVKGRFTISRDNAKKTVYLQMNSLKPEDTAVYYCATYVAYHRGYRTYDHWGQGTQVTVSS” the “polyreactivity (PSR sort gate)” value was “low polyreactivity”. In the case of “QVQLVESGGGLVQAGGSLRLSCAASGRIFKYYAMGWYRQAPGKERELVARISRSSGNTYYADSVKGRFTISRDNAKNTVYLQMNSLKPEDTAVYYCATVPHYNGFNYWGQGTQVTVSS”, the “polyreactivity (PSR sort gate)” value is reported as “high polyreactivity”. For “QVQLVESGGGLVQAGGSLRLICAASGRTFRRNAMGWYRQAPGKERELVAGIRSSGGSTYYADSVKGRFTISRDNAKNTVYLQMNSLKTEDTAVYYFAAAYRSASFPYDYWGQGTQVTVSS”, the “polyreactivity (PSR sort gate)” value was “high polyreactivity”. In the case of “QVQLVESGGGLVQAGGSLRLSCAASGNILRGYAMGWYRQAPGKERELVAAINRGGGSTYYADSVKGRFTISRDNAKNTVYLQMNSLKPEDTAVYYCAARYPHRGYTFDYWGQGTQVTVSS”, the “polyreactivity (PSR sort gate)” value is reported as “low polyreactivity”. With “QVQLVESGGGLVQAGGSLPLSCAASGRTIYRYAMGSYRQAPGKERELDAAIRRSGDSTYYADSVKGRFTISRDIAKKTVYLQMNSLKPEDTAVYYCNAVASGRTYDYWGQGTQVTVSS” the “polyreactivity (PSR sort gate)” value was “high polyreactivity”. In the case of “QVQLVESGGGLVQAGGSLRLSCAASGRTFTCYAMGWYRQAPGKERELVATAITSGGSTNYADSVKGRFTISRDNAKNTVYLQMISLKPEDTAVYYCAAVPTEFGNRLEYDYWGQGTQVTVSS”, the “polyreactivity (PSR sort gate)” value is reported as “low polyreactivity”. In the case of “QVQLVESGGGLVQAGGSLRISCAASGRIFATNAMGWYRQAPGKERELVATITRSAGRTYYADSVKGRFTISRDTAKNTVYLQMNSLKPEDNAVYYFAASYGDTEPGYREYDYWGQGTQVTVSS”, the “polyreactivity (PSR sort gate)” value is reported as “low polyreactivity”. In the case of “QVQLVESVGGLVQAGGSLRLSCAASGFIIYGYGMGWYRQAPGKERELVAAISARSTRTYYADSVKGRFTISRDNAKNTVYLQMNSLKPEDTAVYYCAAVRGPTYRNDNYGYWGQGTQVTVSS”, the “polyreactivity (PSR sort gate)” value is reported as “high polyreactivity”. With “QVQLVESGGGLVQAGGSLRLSCAASGSTFYPTAMGWYRQAPGKERELVAAIRVRGGSTYYADSVKGRYTISRDNAKNTVYLKRNCLKPEDTAVYYCNADTFSSFGWGQGTQVTVSS” the “polyreactivity (PSR sort gate)” value was “low polyreactivity”. With “QVQLVESGGGLVQAGGSLRLSCAASGRTFRPYAMGWYRQAPGKERELVAAITTTGRTYYADSVKGRFTISRDNAKNTVYLQMNSLKPEDTAVYDCNAVAYPSPHYWRYYYWGQGTQVTVSS” the “polyreactivity (PSR sort gate)” value was “high polyreactivity”. For “QVQLVESGGGLVQAGGSLRLSCAASGRTFRQYALGWYRQAPGKEWELVATISGGGGNTYYADSVKGRFTISRDNAKKTVYLQMNSLKPEDTAFYYCAARRRDRPVRGYDYWGQGTQVTVSS”, the “polyreactivity (PSR sort gate)” value was “high polyreactivity”. In the case of “QVQLVESGGGLVQAGGSLRLRCAASGLTFAYNTMGWYRQAPGKEREFVASISSSGGNTYYADSVKGRFTISRDNAKNTVYLQMNSLKPEDTAVYYCAAKKKYHYVASYKRFEYWGQGTQVTVSS”, the “polyreactivity (PSR sort gate)” value is reported as “low polyreactivity”. With “QVQLVESGGGLVQAGGSLRLSCAASGGNFAEYVMGWYRQAPGKERELVAAIDWSGGSTYYADSVKGRFTISRDNAKNTVYLQMNSLKPEDTAVYYCNADGPLDRYEYWGQGTQVTVSS” the “polyreactivity (PSR sort gate)” value was “low polyreactivity”. With “QVQLVESGGGLVQAGGSLRLSCAASGSIFGYYAMGWYRQAPGTERELVATITWGGGSTYADSVKGRFTISRDNAKNTVYLQMNSLKPEDTAVYYCNAGYRYTSAQVTWEYDSWGQGTQVTVSS” the “polyreactivity (PSR sort gate)” value was “low polyreactivity”. With “QGQLVESGGGLVQAGGSLRLSCAASGSIFRAYAMGWNRQAPGKERELVAAISWGGGSTSYADSVKGRFTISRDNAMNTVYLQMNSLKPEDTAVYYCAAELYLSRLRYWYDYWGHGTQVTVSS” the “polyreactivity (PSR sort gate)” value was “high polyreactivity”. For “QVQLVESGGVLFQAGGSLSLSCAASGLTFPRYAMGWYRQAPGKESELDAAISYRGSRTYYADSVKGRFTISRDNAKNTVYLQMNSLKPEDTAVYYCNKVRPGYGVTYLVGYWGQGTQVTVSS”, the “polyreactivity (PSR sort gate)” value was “high polyreactivity”. For “QVQLVESGGGLVQAGGSLRLSCAASGITFRYYAMGRYRQAPGKERELVAAITRSGSTTYADSVKGRFTISRDNAKNTVYLQMNSLKPVDTAVYYCAVDYYYLTGGVDYWGQGTQVTVSS”, the “polyreactivity (PSR sort gate)” value was “low polyreactivity”. For “QVQLVESGGGLVQAGGSLRLSCAASGQIFFVYAMGRYRQAPGKESELVAAISFSAGRTYYADSVKGRFTISRDNAKNTVYLQMNSLKPEDTAVYYCNALRQDTGHYPYDYWGQGTQVTVSS”, the “polyreactivity (PSR sort gate)” value was “low polyreactivity”. For “QVQLVESGGGLVQAGGSLRLSCAASGSTFYRNAMGWYRQAPGKERELVAGISYGGGSTYYADSVKGRFTISRDNAKNTVYLQMNSLKPEDTAVYYCYAVWVKRHYYYWGQGTQVTVSS”, the “polyreactivity (PSR sort gate)” value was “low polyreactivity”. For “QVQLVESGAGLVQAGGSLRLSCAASGRTFRYSAMGWYRQAPGKERELVAAISSRGNTYYADSVKGRFTISRDNAKNTVYLQMNTLKPEDTAVYYCAAYVYRVQYDFDYWGQGTQVTVSS”, the “polyreactivity (PSR sort gate)” value was “high polyreactivity”. For “QVQLVESGGGLVQAGGSLRLSCAASGSTFAWYTMGWYRQAPGKERELVARISGSVGSTYYADSVKGRFTISRDNAKNTVYLQMNSLKPEDTAVYYCAAVYDEDQYDYWGQGTQVTVSS”, the “polyreactivity (PSR sort gate)” value was “low polyreactivity”. For “QVQLLESGGGLVQAGGSLRLSCASSGRTFRSYGMGWYRQAPGKERELVAVISWRDGSTFYADSVKGRFTISRDNAKNTVYLQMNSLKPEDTAVYYCNARGDVIVTPPKFSFKYEYWGQGTQVTVSS”, the “polyreactivity (PSR sort gate)” value was “low polyreactivity”. In the case of “QVQLVESGGGLVQAGGSLRLSCAASGRIFSRNAMGWYRQAPGKERELVAAISSSAGSTYYADSVKGRFTISRDNAKHTVYLQMNSLKPEDTAVYYCGAESVGDMDYWGQGTQVSVSS”, the “polyreactivity (PSR sort gate)” value is reported as “low polyreactivity”. With “QDQLVESGGGLVQAGGSLRLSCAASGNIIVEKAMGWYRQAPGTERELVAVSTSGTSTYADSVKGRFTISRDNAKNTVYLQMYSLKPEDTAVYYCNKRQVFVSTGEYEFDYWGQGTQVTVSS” the “polyreactivity (PSR sort gate)” value was “low polyreactivity”. With “QVQLVESGGGLVQAGGSLRLSCAASGSTFGFYAMGGYRQAPGKERELVAVISSGGGTNYADSVKGRFTISRDNAKNTVYLQMNSLKPEDTAVYYCAASRFALSGGYDYWGQGTQVTVSS” the “polyreactivity (PSR sort gate)” value was “low polyreactivity”. With “QVQLVESGGGLVQAGGSLRLSSPASGFNFKSNCMGWYRQAPGKERELIADIRRSVGSTYYADYVKGRFTISRDNAKNTVYLQMNSLKPEDTSVYYCNAKYIKGRDWGQCTQVTVSS” the “polyreactivity (PSR sort gate)” value was “high polyreactivity”. In the case of “QVQLVESGGGLVQAGGSLRLSCAASGSIFSFYAMGWYRQAPGKERELVASITRRGGSTSYADSVKGRFTISRDNAKNTVYLQMNSLKPEDTAVYYCASESKFISVLRVGYYYVKFDYWGQGTQVTVSS”, the “polyreactivity (PSR sort gate)” value is reported as “high polyreactivity”. For “QVKLVESGGGLVQAGGSLRLSCAASGSIFYYYAMGWYREAPGKERELVAAISYGGGSTYYADSVKGRFTISRDNAKNTVYLQMNSLKPEDTAVYYCAVQEVVGWYLYDYWGHGTQVTVSS”, the “polyreactivity (PSR sort gate)” value was “high polyreactivity”. With “QVQLVESGGGLVQAGGSLRLSCAASGFTFDSYAMGWYRQAPGKERELVADITWDGGSTYYADSVKGRFTISRDNAKNTVYLQMKSLKPEDTAVYYCAADFGTFSIDVYSWMDYWGQGTQATVSS” the “polyreactivity (PSR sort gate)” value was “low polyreactivity”. With “QVQLVESGGGLVQAGGSLRLSCAASGYIFDRYAMGWYRQAPGKERELVATITRRGGSTYYADSVKGRFTISRDNAKNTVYLQMNSLKPEDSAVYYCAKRSPGTYIAMGYWGQGTQVTVSS” the “polyreactivity (PSR sort gate)” value was “high polyreactivity”. For “QVQLVESGGGLVQAGGSLRLSCAASGSIFDEYAMGWYRQAPGKERELVAAITRTGGRTYYADSVKGRFTISRDNAKNTVYLQMNSLKPEDTAVYYSAKGTNYRDDYWGQGTQVTVSS”, the “polyreactivity (PSR sort gate)” value was “low polyreactivity”. For “QVQLVESGGGLVQAGGSLRLSCAASGRIFDKNAMGWYRQAPGKERELVAAINRSGGRTYYADSVKGRFTISRDNAKNTVYLQMNSLKPEDTAVYYCAADTQGSRYDYWGQGTQVTVSS”, the “polyreactivity (PSR sort gate)” value was “high polyreactivity”. With “QVQLVESGGGLVQAGGTLRLSCAASGSIFAVNAMGWYRQAPGKERELVAAISKRGGSTYYADSVKGRFTISRDNAKNTVYLQMNSLKPEDTAVYYCAARILVTYHRDYYYWGLGTQVTVSS” the “polyreactivity (PSR sort gate)” value was “high polyreactivity”. In the case of “QVQLVESGGGLVQAGGSLRLSCAASGRTLTGYAMGWYRQAPGKERELVAAITWRDSTYYADSVKGRFTISRDNAKNSVYLQMNSLKPEDTAVYYCNADNATYFVYEFNYWGQGTQVTVSS”, the “polyreactivity (PSR sort gate)” value is reported as “low polyreactivity”. With “QVQLVVSGGGLVQAGGSLRLSCAASGSIFYFNAMGWYRQAPGKERELVASITSGGSTNYADSVKGRFTISRDNAKTTVYLQLISLKPEDTAVYYFNAYTWGVGSSLDDVGYWGQGTQVTGSS” the “polyreactivity (PSR sort gate)” value was “low polyreactivity”. With “QVQLQESVVGLEQAGGSLRLSCAASGNIFPTDRMGWYRQAPGKELEFVATISHGGSTNYADSVKGRFTISRVNAKNTVYLQLNSLKPEDTAVYYCAVWSLGRWRHYYWGQGTQVTVSS” the “polyreactivity (PSR sort gate)” value was “low polyreactivity”. With “QVQLVESGGGLVQAGGSLRLSCAASGRIFQGYAMGWYRQAPGKERELVASIRTGGTTNYADSVKGRFTISRDNAKNTVYLQMTRLKPEDNAVYYCNSGYYSYYGRYYYWGQGTQVTVSS” the “polyreactivity (PSR sort gate)” value was “high polyreactivity”. With “QVLLVESGGGLVQAGGSLRLSCAASGSIFIANAKGWYRQAPGKERELGAAIDSGGSTNYADSVKGRFTISRDNAKYTVYLQMNSLKPEDTAVYYCAADGTLTAPGGDYWGQGTQVTVSS” the “polyreactivity (PSR sort gate)” value was “high polyreactivity”.
